Assay in all cases: cryo-EM structure
The target of one test is T1, Rpt4 (S. cerevisiae, UniProt P53549 1-437).
T1 sequence (looked up): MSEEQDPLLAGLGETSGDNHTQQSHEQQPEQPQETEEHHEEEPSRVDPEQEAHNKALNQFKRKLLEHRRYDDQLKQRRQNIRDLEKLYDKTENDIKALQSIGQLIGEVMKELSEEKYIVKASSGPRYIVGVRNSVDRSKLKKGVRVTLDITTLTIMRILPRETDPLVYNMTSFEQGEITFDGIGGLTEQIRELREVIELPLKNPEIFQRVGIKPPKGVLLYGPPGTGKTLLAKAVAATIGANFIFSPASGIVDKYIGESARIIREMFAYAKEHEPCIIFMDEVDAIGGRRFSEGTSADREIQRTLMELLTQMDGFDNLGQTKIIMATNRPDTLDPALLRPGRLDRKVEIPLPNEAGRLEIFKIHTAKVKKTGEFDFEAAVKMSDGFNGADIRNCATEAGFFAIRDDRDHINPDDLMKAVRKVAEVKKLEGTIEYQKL

Another test addresses T2, Rpt5 (S. cerevisiae, UniProt P33297 1-434).
T2 sequence (looked up): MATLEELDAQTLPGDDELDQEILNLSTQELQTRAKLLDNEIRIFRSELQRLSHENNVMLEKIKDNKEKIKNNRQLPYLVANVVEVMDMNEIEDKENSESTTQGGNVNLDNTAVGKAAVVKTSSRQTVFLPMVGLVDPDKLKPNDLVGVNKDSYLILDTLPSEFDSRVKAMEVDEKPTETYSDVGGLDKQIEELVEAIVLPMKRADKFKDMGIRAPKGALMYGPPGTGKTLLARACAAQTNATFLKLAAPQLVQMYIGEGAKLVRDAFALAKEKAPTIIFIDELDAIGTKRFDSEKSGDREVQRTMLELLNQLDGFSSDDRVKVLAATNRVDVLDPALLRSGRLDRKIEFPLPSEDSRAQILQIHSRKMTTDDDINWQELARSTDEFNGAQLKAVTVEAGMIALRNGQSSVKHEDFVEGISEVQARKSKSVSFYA

For the next test, the target named is T3, Rpn7 (S. cerevisiae, UniProt Q06103 1-429).
T3 sequence (looked up): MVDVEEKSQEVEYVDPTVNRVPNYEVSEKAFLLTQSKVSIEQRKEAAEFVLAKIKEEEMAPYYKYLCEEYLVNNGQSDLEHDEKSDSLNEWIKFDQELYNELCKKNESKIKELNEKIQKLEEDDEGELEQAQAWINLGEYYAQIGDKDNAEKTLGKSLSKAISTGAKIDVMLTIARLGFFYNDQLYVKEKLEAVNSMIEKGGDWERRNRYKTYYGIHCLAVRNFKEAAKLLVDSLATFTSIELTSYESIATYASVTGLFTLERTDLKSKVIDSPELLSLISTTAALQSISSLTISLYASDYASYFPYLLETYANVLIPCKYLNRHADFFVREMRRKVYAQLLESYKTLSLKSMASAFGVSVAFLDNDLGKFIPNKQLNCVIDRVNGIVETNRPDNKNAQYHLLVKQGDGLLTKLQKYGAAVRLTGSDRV

Another test deals with T4, Rpn5 (S. cerevisiae, UniProt Q12250 1-445).
T4 sequence (looked up): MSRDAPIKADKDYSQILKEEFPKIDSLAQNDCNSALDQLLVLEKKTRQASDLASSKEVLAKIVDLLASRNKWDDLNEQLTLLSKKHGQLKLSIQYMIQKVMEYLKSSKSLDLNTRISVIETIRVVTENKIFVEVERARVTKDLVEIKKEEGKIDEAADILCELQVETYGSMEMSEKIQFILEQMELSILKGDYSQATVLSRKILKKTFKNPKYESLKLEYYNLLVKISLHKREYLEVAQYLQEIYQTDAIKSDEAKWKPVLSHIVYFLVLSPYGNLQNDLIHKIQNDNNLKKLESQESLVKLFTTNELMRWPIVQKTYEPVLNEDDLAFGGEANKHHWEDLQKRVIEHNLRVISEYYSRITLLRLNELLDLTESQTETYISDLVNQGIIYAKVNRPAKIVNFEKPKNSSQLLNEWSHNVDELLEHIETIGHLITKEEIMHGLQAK

Another test addresses T5, Rpn6 (S. cerevisiae, UniProt Q12377 1-434).
T5 sequence (looked up): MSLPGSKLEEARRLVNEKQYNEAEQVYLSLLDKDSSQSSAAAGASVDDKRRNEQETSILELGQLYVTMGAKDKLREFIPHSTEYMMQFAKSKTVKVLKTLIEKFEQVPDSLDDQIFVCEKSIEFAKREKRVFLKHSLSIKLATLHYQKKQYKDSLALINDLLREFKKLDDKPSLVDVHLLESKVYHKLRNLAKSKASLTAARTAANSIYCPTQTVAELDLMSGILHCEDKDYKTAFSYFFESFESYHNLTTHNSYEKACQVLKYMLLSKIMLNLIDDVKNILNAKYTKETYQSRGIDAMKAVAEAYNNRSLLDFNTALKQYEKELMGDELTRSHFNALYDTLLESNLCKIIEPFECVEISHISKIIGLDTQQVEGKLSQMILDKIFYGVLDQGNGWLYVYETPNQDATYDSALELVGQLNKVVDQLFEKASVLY

B1: Rpn10 (natural protein, S. cerevisiae, UniProt P38886 1-268, looked up)
chain: MVLEATVLVIDNSEYSRNGDFPRTRFEAQIDSVEFIFQAKRNSNPENTVGLISGAGANPRVLSTFTAEFGKILAGLHDTQIEGKLHMATALQIAQLTLKHRQNKVQHQRIVAFVCSPISDSRDELIRLAKTLKKNNVAVDIINFGEIEQNTELLDEFIAAVNNPQEETSHLLTVTPGPRLLYENIASSPIILEEGSSGMGAFGGSGGDSDANGTFMDFGVDPSMDPELAMALRLSMEEEQQRQERLRQQQQQQDQPEQSEQPEQHQDK
In the case of B1, the binding result with Rpt4 and with Rpt5 was “binds” each time.

B2: Rpt3 (natural protein, S. cerevisiae, UniProt P33298 1-428, looked up)
chain: MEELGIVTPVEKAVEEKPAVKSYASLLAQLNGTVNNNSALSNVNSDIYFKLKKLEKEYELLTLQEDYIKDEQRHLKRELKRAQEEVKRIQSVPLVIGQFLEPIDQNTGIVSSTTGMSYVVRILSTLDRELLKPSMSVALHRHSNALVDILPPDSDSSISVMGENEKPDVTYADVGGLDMQKQEIREAVELPLVQADLYEQIGIDPPRGVLLYGPPGTGKTMLVKAVANSTKAAFIRVNGSEFVHKYLGEGPRMVRDVFRLARENAPSIIFIDEVDSIATKRFDAQTGSDREVQRILIELLTQMDGFDQSTNVKVIMATNRADTLDPALLRPGRLDRKIEFPSLRDRRERRLIFGTIASKMSLAPEADLDSLIIRNDSLSGAVIAAIMQEAGLRAVRKNRYVILQSDLEEAYATQVKTDNTVDKFDFYK
As for B2, the binding result in the test with Rpn7, with Rpn5 and with Rpn6 was “binds” each time.

B3: Rpt6 (natural protein, S. cerevisiae, UniProt Q01939 1-405, looked up)
chain: MTAAVTSSNIVLETHESGIKPYFEQKIQETELKIRSKTENVRRLEAQRNALNDKVRFIKDELRLLQEPGSYVGEVIKIVSDKKVLVKVQPEGKYIVDVAKDINVKDLKASQRVCLRSDSYMLHKVLENKADPLVSLMMVEKVPDSTYDMVGGLTKQIKEIKEVIELPVKHPELFESLGIAQPKGVILYGPPGTGKTLLARAVAHHTDCKFIRVSGAELVQKYIGEGSRMVRELFVMAREHAPSIIFMDEIDSIGSTRVEGSGGGDSEVQRTMLELLNQLDGFETSKNIKIIMATNRLDILDPALLRPGRIDRKIEFPPPSVAARAEILRIHSRKMNLTRGINLRKVAEKMNGCSGADVKGVCTEAGMYALRERRIHVTQEDFELAVGKVMNKNQETAISVAKLFK
Regarding B3, the binding result in the test with Rpn7 is listed as “binds”.
